Data from article PMC10653861, “Three small partner proteins facilitate the type VII-dependent secretion of an antibacterial nuclease” (mBio, 2023).

Molecular target: the molecule itself
Test: cross-linking; purified complexes from the major SEC peaks, 0.5 mg/mL in 50 mM HEPES pH 7.5, 150 mM NaCl, 0.1% glutaraldehyde for 30 min at room temperature, quenched with tris; SEC and SDS-PAGE with Coomassie staining

B1: EsaDEG trimer (complex)
chain 1: MTKDIEYLTADYDNEKSSIQSVIDAIEGQDFLDVDTTMDDAVSDVSSLDEDGAISLTSSVVGPQGSKLMGYYQNELYDYASQLDSKMKEIIDTPFIEDIDKAFKGITNVKLENILIKNGGGHGRDTYGASGKIAKGDAKKSDSDVYSIDEILKSDQEFVKVIDQHYKEMKKEDKKLSKSDFEKMMTQGASCDYMTVAEAEELEEQKKKEEAIEIAALAGMVVLSCINPVAGAVAIGAYSAYSAANAATGKNIVTGRKLSKEERIMEGLSLIPLPGMGFLKGAGKSLMKLGFKGGEKFAVKTGLQKTMQQAVSRISPKMGMMKNSVLNQSRNFAQNTHVGQMLSNMRGQATHTVQQSRNWIGQQAQNVKRIVNNGLDKEIAHPFKQQLAPAGMGGIKFAETTTLRNMGQNIKRAVTPQNHVTHGPKDSMVRSEGKHSISSHEMNSSKYVESPNYTKVEFGEHYARLRPKKLKANIEYTTPTGHIYRTDHKGRIKEVYVDNLSLKDGDRNSHAQRTVGGEDRLPDDDGGALIARMFGGSKDIDNLVAQSKFINRPFKEKGHWYNLEKEWQEFLNSGKEVKNIKMEVKYSGNSQRPTIFKVEYEINGERNIRRILNK
chain 2: MKDVKRIDYFSYEELTILGGSKLPLVNFELFDPSNFEEAKAALIEKELVTENDKLTDAGFKVATLVREYISAIVNIRINDMYFAPFSYEKDEYILLSRFKNNGFQIRIINKDIAWWSIVQSYPLLMRQEKSNDWDFKQIDDETLENLNNESIDTIGRVLEIEIYNHQGDPQQSLYNIYEQNDLLFIRYPLKDKVLNVHIGVINTFIRELFGFDTDENHINKAEE
chain 3: MTFEEKLSKIYNEIANEISSMIPVEWEKVYTMAYIDDGGGEVFFNYTKPGSDDLNYYTNIPKEYNISVQVFDDLWMDLYDLFEELRDLFKEEDLEPWTSCEFDFTREGELKVSFDYIDWINSEFGQIGRQNYYKYRKFGILPETEYEINKVKEIEQYIKELEE
notes: EsaD nuclease toxin of Staphylococcus aureus with H528A, as m1; EsaE chaperone of Staphylococcus aureus, as m5; EsaG immunity protein of Staphylococcus aureus, as m6; also called EsaDEG complex; not shown: His6, C-terminal, kept; copies: + +
binding result: binds
